Experimental data: PMC7726095 (Current biology : CB, 2020)

Biological target: APC-B (APC Basic domain, residues 2167-2674), without SNAP (human, UniProt P25054 2167-2674)
Assay: other fluorescence titration

B1: EB1 (full-length, untagged, unlabeled) (natural protein, human, UniProt Q15691 1-268, looked up)
chain: MAVNVYSTSVTSDNLSRHDMLAWINESLQLNLTKIEQLCSGAAYCQFMDMLFPGSIALKKVKFQAKLEHEYIQNFKILQAGFKRMGVDKIIPVDKLVKGKFQDNFEFVQWFKKFFDANYDGKDYDPVAARQGQETAVAPSLVAPALNKPKKPLTSSSAAPQRPISTQRTAAAPKAGPGVVRKNPGVGNGDDEAAELMQQVNVLKLTVEDLEKERDFYFGKLRNIELICQENEGENDPVLQRIVDILYATDEGFVIPDEGGPQEEQEEY
In the case of B1, the IC50 is reported as roughly 300 nM.
